Measurements from US20080104734A1.

Biological target: SSPG1d peptide (…) (Sclerotinia sclerotiorum)
Assay: phage ELISA during panning of the phage display scFv library

B1: scFv-SSPG1d-peptide (scFv)
scFv: MDIVLTQSPAIMSASPGEKVTMTCSASSSVSYMHWYQQKSSTSPKLWIYDTSKLASGVPGRFSGSGSGNSYSLTISSMEAEDVATYYCFQGSGYPLTFGAGTKLEIKRGAGGSGGGGSGGGGSGGGGSQVQLQQSGAELVRPGSSVKISCKASGYAFSNYWMNWVKQRPGQGLEWIGQIYPGYGDAKYNGKFKGKATLTADISSSTAYMQLSSLTSEDSAVYFCARSSYEANWGQGTLVTVSA
B1 showed an absorbance at 450 nm above background (absorbance (450 nm)) of 0.871.
